The term Kd denotes a measure of binding affinity in units of concentration. A lower Kd goes with tighter binding.

Positions count from the first letter of the chain named.

For eight molecules, Kd results are on record in patent US20150098946A1 (Genentech, published 2015).

This test deals with T1, TAT194 polypeptide as used in the BIAcore analysis (human, UniProt P07949 29-635, limits assumed).
T1 construct: The construct used for the BIAcore analysis (extracellular domain, tag, fusion, isoform) is not described; also called RET
Kind of test: standard BIAcore analysis.

B1: anti-TAT194 monoclonal antibody R4204 (antibody, V domains shown)
VH: QVQLQQSGAELAKPGTSVKMSCKASGYTFTTYWMHWIKQRPGQGLEWIGYINPSTGYSEYNQKFKDKATLTADRSSSTAYMQLSSLTSEDSTVYYCARWRFYGSTYGMDYWGQGTSVTVSS
VL: QIVLTQSPALMSAFPGEKVTLTCSASSSVTYMYWYQQKPRSSPKPWIYLTSKLASGVPSRFSGSGSGTSFSLTITSMEAEDAATYYCQQWTGNPLTFGAGTKLELKR
notes: Monoclonal antibody from a mouse hybridoma; kappa VL
The molecule B1 came in with a Kd of 169 nM.

B2: anti-TAT194 monoclonal antibody R4212 (antibody, V domains shown)
VH: DVQLQESGPGLVAPSQSLSITCTVSGFSLSRYSVHWVRQPPGKGLEWLGMIWLGGSTDYNSALKSRLSISKDISKSQVFLKMNSLQTDDTAMYYCARNLDSRGFAHWGQGTLVTVSA
VL: DVLMTQTPLSLPVSLGDQASISCRSSQSIVHSNGNTYLEWYLQKPGQSPKLLIYKVSNRFSGVPDRFSGSGSGTDFTLKISRVEAEDLGVYYCFQGSHVPPTFGGGTKLEIKR
notes: as for B1
Molecule B2 came in with an equilibrium dissociation constant (Kd) of 105 nM.

B3: anti-TAT194 monoclonal antibody R4208 (antibody, V domains shown)
VH: QVHLQQSGSELRSPGSSVKLSCKDFDSEVFPIAYMSWVRQKPGHGFEWIGDILPNIGRTIYGEKFEDKATLDADTVSNTAYLELNSLTSEDSAMYYCGRSITRAWFAYWGQGTLVTVSV
VL: DIQMTQSPSSLSASLGERVSLTCRASQEISGYLSWFQQKPDGTIKRLIYAASTLDSGVPKRFSGSRSGSDYSLTISSLASEDFADYFCLQYAGNPFTFGSGTKLEIKR
notes: as for B1
Molecule B3 had a Kd of 1.25 nM.

B4: anti-TAT194 monoclonal antibody R4203 (antibody, V domains shown)
VH: EVQLQQSGPELVKPGASMKISCKASGYSFTGFTMNWVKQSHGKNLEWIGLINPYNGVTNYNQKFRGKATLTVDESSSTAYMDLLSLTSEDSAVYYCARHYSFAMDYWGQGTSVTVSS
VL: DIVLTQSPASLAVSLGQRATISCRASESVDGYGSSFMHWYQQKPGQPPKLLIYRTSNLESGIPARFSGSGSTTDFTLTINPVEADDVATYYCQQNSEDRTFGGGTKLEIKR
notes: as for B1
For B4, the dissociation constant Kd came out at 0.1 nM.

B5: anti-TAT194 monoclonal antibody R4209 (antibody, V domains shown)
VH: EVNLEESGGGLVQPGGSMKLSCVASGFTFSNYWMNWVRQSPEKGLEWVADISLKSNNYGTHYAESVNGRFTISRDDSTSSVYLQMNNLRAEDTGIYYCAVYYYGVKFYYFVLGYWGQGTSVTVSS
VL: DIVMTQSHKFMSTSVGDRVSITCKASQDVSTAVAWYQQKPGQSPKLLIYWGSTRHTGVPDRFTGVGSGTDYSLTISSVQAEDLALYYCQQHYNIPWTFGGGTKLEIKR
notes: as for B1
The molecule B5 displayed a Kd of 2.55 nM.

B6: anti-TAT194 monoclonal antibody R4205 (antibody, V domains shown)
VH: QVQLKESGPGLVKPSQSLSLTCTVTGYSITSDYVWNWIRQFPGNKLEWMGYIHYSGGTSYNPSLKSRISITRDTSKNQFFLHLNSLTTEDTATYYCARGNYDWAFAYWGQGTLVTVSA
VL: DVQITQSPSYLAASPGETITINCRASKSISKYLAWYQDKPGKTNKLLISSGSTLQSGIPSRFSGSGSGADFTLTISSLEPEDFAMYYCQQHNEYPWTFGGGTKLEIKR
notes: Monoclonal antibody from a mouse hybridoma; kappa VL; also called anti-RET murine monoclonal antibody clone 4205
In the case of B6, binding was put at a Kd of 0.18 nM.

B7: anti-TAT194 monoclonal antibody R4206 (antibody, V domains shown)
VH: DVQLQESGPGLVKPSQSLSLTCTVTGFSITSDYAWNWIRQFPGNKLEWMAYITYSGDTGYNPSLKSRISVTRDTSKNQFFLQLSSVTTEDTATYYCARGNYDWVFAYWGQGTLVTVSA
VL: B6 VL with D38E, S49Y, A69T, H91Y, N92I
notes: as for B1
In turn, B7 gave a Kd of 0.34 nM.

B8: anti-TAT194 monoclonal antibody R4207 (antibody, V domains shown)
VH: B7 VH
VL: B6 VL with D38E, S49Y, A69T, H91Y, N92I
notes: as for B1
The molecule B8 showed a Kd of 0.54 nM.
